Data on 141 substances can be found in the supplement of paper PMC12042874.

± gives the uncertainty stated by the source.

The nature of the data set: amyloid nucleation score (Sup35N fusion, yeast selection) (log enrichment); library NNK2; higher = more nucleation; inactive = no reads after selection. The essentials:
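Psi-negative yeast expressed Sup35N fused to peptides of 20 random codons. They were induced 24 hours with 100 μM copper sulfate, grown 7 days at 30°C without adenine and uracil, and their plasmid inserts from input and output were Illumina-sequenced. The nucleation score is the DiMSum log enrichment of output over input reads, centred on the mode score of non-aggregating sequences. Sequences with under 100 input reads were excluded.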
In turn, WFMEILFVV registered an amyloid nucleation score of -0.383 ± 0.26.

In turn, WFMFCNLGLGTPIGMITLRS returned an amyloid nucleation score of -1.16 ± 0.56.

With WFRRQSLGWVRANGPVMRIS, the amyloid nucleation score stood at 0.035 ± 0.34.

The substance WFRYNCHDFSLTNPWRHHNL registered an amyloid nucleation score of 0.507 ± 0.52.

Substance WGADSYYMCTKLLGSDCGSN registered an amyloid nucleation score of 0.453 ± 0.66.

Turning to WGCQLRSMQTMTRHR, the amyloid nucleation score came out at 0.949 ± 0.74.

WGEVRLCESMVCCLGRIQGR showed an amyloid nucleation score of 4.1 ± 0.063.

In turn, WGWKYMLEELN displayed an amyloid nucleation score of -0.177 ± 0.55.

As for WHFSLTMFRSERVNVLTASD, the amyloid nucleation score turned out to be 1.04 ± 0.27.

WHNYSYSRGIRRCHQMKHKR yielded an amyloid nucleation score of 1.46 ± 0.15.

Turning to WHQVRPARV, the amyloid nucleation score came to 1.17 ± 0.3.

The substance WHTYSRCSFRKRAGSLVAFP returned an amyloid nucleation score of 0.365 ± 0.28.

WIMSVGTAKWRDGQPSACRK: the amyloid nucleation score amounted to 3.46 ± 0.13.

The substance WKALAS displayed an amyloid nucleation score of 1.74 ± 0.11.

As to WKFSYDFSASASGHHALVNK, the amyloid nucleation score is 3.22 ± 0.13.

WKHMSRR gave an amyloid nucleation score of 0.639 ± 0.66.

For WKQEYFG, the amyloid nucleation score is -0.508 ± 0.63.

The substance WLGYEEGG gave an amyloid nucleation score of 0.508 ± 0.62.

Regarding WLNHYAQLIHRARGHVWNMY, the amyloid nucleation score is -0.685 ± 0.63.

For WLNLARDWKWKSDINFWKVH, the amyloid nucleation score entry is “inactive”.

Consider WLNVDYSYSALRLHNCNGLM, for which the amyloid nucleation score was determined as 1.64 ± 0.085.

As to WLPLYMFQDQYLLKAPWISS, the amyloid nucleation score result is “inactive”.

WLPMYL had an amyloid nucleation score of 0.194 ± 0.26.

In turn, WLWNNG gave an amyloid nucleation score of 0.485 ± 0.74.

As to WMLIWYGPRLVYIPDLITLP, the amyloid nucleation score entry is “inactive”.

Substance WMLWANIDPGDAPYREASAG registered an amyloid nucleation score of 4.06 ± 0.05.

Substance WNAHN yielded an amyloid nucleation score of -0.081 ± 1.1.

Regarding WNSIYGLAEMQVCWWFGWGC, the amyloid nucleation score is -0.628 ± 0.41.

WNTIYMSTFVIRDFAIYIKY yielded an amyloid nucleation score of 7.53 ± 0.058.

Take WNVMHI: the amyloid nucleation score was found to be 0.358 ± 0.64.

With WNYITVDISQLNLPGVAMGW, the amyloid nucleation score came to 3.45 ± 0.097.

In turn, WNYSNRNDYELFRTLK showed an amyloid nucleation score of 0.316 ± 0.57.

Take WPFPKSRNRS: the amyloid nucleation score is -0.076 ± 0.79.

As for WPSLVLGYDMLGVI, the amyloid nucleation score was -0.025 ± 1.1.

In turn, WQSAEEWMLPYGVNMVVSWA had an amyloid nucleation score of 0.483 ± 0.46.

On to WRDGSYLFPDVPERPSRNSG, for which the amyloid nucleation score result was “inactive”.

In turn, WRDSVDTGISSGKVGGRCSE gave an amyloid nucleation score of -0.047 ± 0.27.

The substance WRLSLGYPVSALQMRMPGTL displayed an amyloid nucleation score of 2.1 ± 0.22.

Substance WRMGTPNIRMLC returned an amyloid nucleation score of -0.318 ± 0.38.

Substance WRRTTYYGRDRGQVLGNNAG yielded an amyloid nucleation score of -0.009 ± 0.36.

As for WRSGGQPCVSGSWSVTNLCV, the amyloid nucleation score was 3.1 ± 0.092.

In the case of WRVLFQDFRCKINYLGSSSR, the amyloid nucleation score entry was “inactive”.

On to WSANVPQWLLTRPYFDSHHN, for which the amyloid nucleation score result was “inactive”.

WSEYRFRHIPKLKKCYQVD returned an amyloid nucleation score of 0.175 ± 0.32.

For the substance WSHGHIFIRD, the amyloid nucleation score result is “inactive”.

In turn, WSIVGLGSRCWREVASCSTV displayed an amyloid nucleation score of 0.636 ± 0.49.

With WSKEFEIGSNHSKSNTRCGR, the amyloid nucleation score turned out to be 0.244 ± 0.46.

On to WSKQKVAT, for which the amyloid nucleation score amounted to 0.814 ± 0.21.

WSMSVLVSPHVMFKNAMEVL showed an amyloid nucleation score of 0.22 ± 0.28.

Consider WSMVTVLRGDRG, for which the amyloid nucleation score was 0.525 ± 0.54.

In turn, WSNPTKLFHELAVQLNYTMP displayed an amyloid nucleation score of 0.903 ± 0.74.

WSPLSLVTIELLVQSVIDPF had an amyloid nucleation score of -0.351 ± 0.48.

For the substance WSRFSCRT, the amyloid nucleation score turned out to be 1.24 ± 0.2.

On to WSTAFSKLNSSRKSD, for which the amyloid nucleation score was -0.582 ± 0.76.

Turning to WSTASSVLIICIQRFF, the amyloid nucleation score result is “inactive”.

WSWGGHAVMFY: the amyloid nucleation score is -0.424 ± 1.1.

On to WTDSHSKMRNFRPG, for which the amyloid nucleation score is -0.259 ± 0.49.

For the substance WTGGFSLQSVHCNQN, the amyloid nucleation score was -0.393 ± 1.1.

In the case of WTLYKTMIMVSSVPFIIKIC, the amyloid nucleation score is -1.2 ± 0.76.

The substance WTNFVGLSALFSMWV returned an amyloid nucleation score of -1.54 ± 1.1.

The substance WTRAVKPPV had an amyloid nucleation score of -0.113 ± 0.34.

Take WTSLSNVFRLTNMYTRVSKW: the amyloid nucleation score was -0.55 ± 0.76.

For the substance WTYPLC, the amyloid nucleation score is -0.744 ± 1.1.

Regarding WVPRRSSLCGAILYLGTKSM, the amyloid nucleation score was -0.965 ± 0.78.

Consider WVYRLMLTMLR, for which the amyloid nucleation score is -0.055 ± 0.41.

Substance WWHLKTQKSP had an amyloid nucleation score of -0.09 ± 0.44.

In the case of WWKGWARTNNVMRAFVVMFY, the amyloid nucleation score is -0.655 ± 0.44.

Consider WWKYLVICLWARMALKGFSL, for which the amyloid nucleation score entry is “inactive”.

With WWNTGCVGLMCICTLFSGSR, the amyloid nucleation score amounted to 8.985 ± 0.081.

WWRNFD came in with an amyloid nucleation score of -0.526 ± 0.76.

Regarding WWWPSVWTCRM, the amyloid nucleation score is -0.716 ± 0.78.

The substance WYGFFTVLWSKTVRLDFNPM returned an amyloid nucleation score of -1.05 ± 0.54.

Substance WYHGSASCEYIGYVYPWHAA gave an amyloid nucleation score of 3.58 ± 0.064.

WYRPTSYRRKHKGDISLDLG yielded an amyloid nucleation score of -0.226 ± 1.1.

WYTPRLRMLHLAEKGVRVVV came in with an amyloid nucleation score of 4.31 ± 0.089.

As for WYVDSLLWEILSALECCVFM, the amyloid nucleation score result is “inactive”.

As to WYVYSESRIS, the amyloid nucleation score was -0.267 ± 0.42.

WYWHPCTIFL displayed an amyloid nucleation score of 5.46 ± 0.038.

As for WYYGLTPSQACGGEIPCDFQ, the amyloid nucleation score stood at 6.523 ± 0.056.

For the substance YADCVYDREPYTV, the amyloid nucleation score entry is “inactive”.

Regarding YAFSCFKSNVFWKGTGNRRG, the amyloid nucleation score was -0.973 ± 0.63.

In turn, YAGWVGI gave an amyloid nucleation score of -0.387 ± 1.1.

Regarding YAMCTWSV, the amyloid nucleation score is 1.88 ± 0.13.

YAPLSTDPYILVHCIRPRLA displayed an amyloid nucleation score of -0.558 ± 1.

In turn, YASCLSSKLCDEDNPTYW registered an amyloid nucleation score of -0.488 ± 0.39.

Substance YAVAEGFVASGYWTAYMPLS registered an amyloid nucleation score of 0.487 ± 0.62.

For YCCGGRIRKSRLINFYVTWS, the amyloid nucleation score was -0.046 ± 0.5.

Turning to YCGLVWVSKYSVTRAFRRNV, the amyloid nucleation score is -0.297 ± 0.39.

Consider YCHALARLSGFL, for which the amyloid nucleation score was determined as 0.127 ± 0.27.

YCNNYG came in with an amyloid nucleation score of -2.65 ± 0.75.

As to YCPDLLHYHL, the amyloid nucleation score is 0.256 ± 0.21.

As to YCTSRVTTRSFISDCLTWIR, the amyloid nucleation score is 1.97 ± 0.069.

Regarding YCWMRRMKSLPGNMYVLAT, the amyloid nucleation score was 0.25 ± 0.8.

YCYARD came in with an amyloid nucleation score of -0.172 ± 1.1.

YCYVCDVNVYVYLTAIGNKF returned an amyloid nucleation score of 7.43 ± 0.085.

YDIVVNYLNHHQR gave an amyloid nucleation score of 4.88 ± 0.11.

As for YDRKGIQCKRLAGPGQRHRS, the amyloid nucleation score came out at 0.244 ± 0.39.

Turning to YDSLYWCGSWYLGLSWISLR, the amyloid nucleation score was -0.953 ± 0.62.

On to YEFCVAFFDRNNCNREP, for which the amyloid nucleation score was -1.6 ± 0.75.

For the substance YEGYLVSVQLRRMWDVQLGP, the amyloid nucleation score was 3.79 ± 0.054.

Substance YEIFGRTNPMMVDKNNAIWV registered an amyloid nucleation score of -0.691 ± 0.42.

Turning to YENFLLLL, the amyloid nucleation score was -0.676 ± 0.26.

For YFCPVPYLAPVLCRLFKVKL, the amyloid nucleation score was -0.87 ± 1.

YFELNLNVKRRGGKWYYSLI registered an amyloid nucleation score of 1.16 ± 0.27.

For the substance YFGFGKSGDYHHSWKRWLPR, the amyloid nucleation score is -0.511 ± 0.35.

Consider YFGSCPREKLGILYKELLVL, for which the amyloid nucleation score was -0.563 ± 0.79.

For the substance YFKFFWNAQMLGCA, the amyloid nucleation score entry was “inactive”.

Regarding YFKRSGLSICRTGKLALGWH, the amyloid nucleation score entry is “inactive”.

Substance YFKYNVYIT yielded an amyloid nucleation score of 1.3 ± 0.23.

In turn, YFLALAYRAVPLLWYRPRGL came in with an amyloid nucleation score of 0.751 ± 0.38.

YFMSRRE had an amyloid nucleation score of -0.04 ± 0.45.

In the case of YFNSLLPLLSPFYRPNIALL, the amyloid nucleation score was -0.299 ± 0.56.

Consider YFQKGFDVARIHLSFTLVLY, for which the amyloid nucleation score was -0.913 ± 1.

YFSYPC yielded an amyloid nucleation score of -1.82 ± 1.

Substance YFYCRYYMNRWNYYL yielded an amyloid nucleation score of -0.396 ± 0.33.

For YFYNGWRERARSEQCNHRT, the amyloid nucleation score was determined as 0.441 ± 0.43.

Turning to YFYPFLCLTKNQLVLSNRRT, the amyloid nucleation score was 4.47 ± 0.073.

Substance YGAWCERLKRFSRLVWSDGR came in with an amyloid nucleation score of 0.312 ± 0.54.

The substance YGDCLRLTDSYVSIFTRVPT displayed an amyloid nucleation score of 0.159 ± 0.3.

Substance YGDSWLFCYVE came in with an amyloid nucleation score of -1.12 ± 0.64.

For YGFASFSLYDYYLLVCSMFI, the amyloid nucleation score entry was “inactive”.

Substance YGFENLVSILKFVQVNSKCG yielded an amyloid nucleation score of 1.38 ± 0.085.

As to YGGDLYLIFDLLDRVILL, the amyloid nucleation score result is “inactive”.

Take YGGPGRNKGPNSCRSTATSV: the amyloid nucleation score turned out to be 1.02 ± 0.17.

YGHLRVWKIPS displayed an amyloid nucleation score of 0.655 ± 0.65.

YGILCAKLTAVCL yielded an amyloid nucleation score of 1.44 ± 0.36.

For the substance YGKADCPSLGVYMRL, the amyloid nucleation score turned out to be 2.25 ± 0.15.

YGLLGFFGMQCCHNLCMYRG yielded an amyloid nucleation score of 2.02 ± 0.13.

In turn, YGMKSRVECVVY had an amyloid nucleation score of -0.949 ± 0.63.

Substance YGMQLFC displayed an amyloid nucleation score of 3.95 ± 0.082.

The substance YGSDALYWLVWVYV had an amyloid nucleation score of -0.016 ± 0.48.

As to YGSLVYVPAYGEISL, the amyloid nucleation score was -0.921 ± 0.5.

YHEIFF came in with an amyloid nucleation score of -0.243 ± 0.4.

YHMGDGLDVWGRDRSG came in with an amyloid nucleation score of 0.901 ± 0.27.

Regarding YHVPSGTCATR, the amyloid nucleation score is 0.912 ± 0.58.

With YHYDCYHLLTERKQGELVRT, the amyloid nucleation score is -0.425 ± 0.35.

The substance YIECFTSMQLP displayed an amyloid nucleation score of -0.397 ± 0.79.

Turning to YIESIAECQSVRVGSIVDCF, the amyloid nucleation score is -1.33 ± 0.75.

Turning to YIFLIMCRWYSATLIRKTSC, the amyloid nucleation score was -0.584 ± 0.76.

As for YIGPNKFLKQFDCLINFFLT, the amyloid nucleation score came out at 3.08 ± 0.097.

Consider YIGVKKNNSMAGAYGGSLAQ, for which the amyloid nucleation score result was “inactive”.
